Test results as given in patent US20220312749A1 (BIOCYTOGEN PHARMACEUTICALS BEIJING, published 2022).

Assays:
Experiment in all cases: inferred by the filing from p-STAT5 flow cytometry on humanized mouse splenocytes
mouse IL2RG = molecular target: T1, mouse IL2RG (mouse, UniProt P34902 23-369)
T1 construct: whole, on cells; also called CD132; common gamma chain
T1 sequence (looked up): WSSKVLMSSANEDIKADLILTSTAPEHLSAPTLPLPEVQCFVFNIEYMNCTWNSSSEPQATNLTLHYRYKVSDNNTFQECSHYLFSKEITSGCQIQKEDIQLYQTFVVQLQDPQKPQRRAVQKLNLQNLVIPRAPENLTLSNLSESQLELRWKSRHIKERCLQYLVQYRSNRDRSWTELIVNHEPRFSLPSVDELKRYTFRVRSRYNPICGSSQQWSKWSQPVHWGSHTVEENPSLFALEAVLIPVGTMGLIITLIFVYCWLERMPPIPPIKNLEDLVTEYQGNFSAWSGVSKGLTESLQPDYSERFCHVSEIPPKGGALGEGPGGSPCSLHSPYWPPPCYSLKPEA
Protocol: (§1) p-STAT5 is a known downstream signal in the IL2/IL2RA-mediated signaling pathway. Thus, the level of p-STAT5 in the IL2RA gene humanized mice can be detected to verify whether the IL2/IL2RA signaling pathway is functional in the humanized mice. Spleen cells from 14-week old wild-type C57BL/6 mice and IL2RA gene humanized homozygous mice were isolated (5×10⁵ cells/well, 4 wells each) and incubated in a 37° C. incubator for 30 minutes. […] Then, the stimulated cells were stained by APC Rat Anti-Mouse CD3 Molecular Complex, permeabilized, and stained by Phospho-Stat5 (Tyr694) (D47E7) XP® Rabbit mAb and Anti-rabbit IgG (H+L), F(ab′)2 Fragment (Alexa Fluor® 488 Conjugate), followed by flow cytometry analysis.

[1] = molecular target: T2, Mouse recombinant interleukin 2 (mIL2) (mouse, UniProt P04351 21-169)
T2 construct: Bought reagent; also called recombinant mouse IL2; mouse IL2
T2 sequence (looked up): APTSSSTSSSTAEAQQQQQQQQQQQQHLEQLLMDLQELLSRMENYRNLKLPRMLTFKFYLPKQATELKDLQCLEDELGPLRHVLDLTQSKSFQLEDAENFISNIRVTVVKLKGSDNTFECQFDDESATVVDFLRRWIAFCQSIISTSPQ
Protocol: as §1

mouse IL2RB = molecular target: T3, mouse IL2RB (mouse, UniProt P16297 27-539)
T3 construct: whole, on cells; also called CD122
T3 sequence (looked up): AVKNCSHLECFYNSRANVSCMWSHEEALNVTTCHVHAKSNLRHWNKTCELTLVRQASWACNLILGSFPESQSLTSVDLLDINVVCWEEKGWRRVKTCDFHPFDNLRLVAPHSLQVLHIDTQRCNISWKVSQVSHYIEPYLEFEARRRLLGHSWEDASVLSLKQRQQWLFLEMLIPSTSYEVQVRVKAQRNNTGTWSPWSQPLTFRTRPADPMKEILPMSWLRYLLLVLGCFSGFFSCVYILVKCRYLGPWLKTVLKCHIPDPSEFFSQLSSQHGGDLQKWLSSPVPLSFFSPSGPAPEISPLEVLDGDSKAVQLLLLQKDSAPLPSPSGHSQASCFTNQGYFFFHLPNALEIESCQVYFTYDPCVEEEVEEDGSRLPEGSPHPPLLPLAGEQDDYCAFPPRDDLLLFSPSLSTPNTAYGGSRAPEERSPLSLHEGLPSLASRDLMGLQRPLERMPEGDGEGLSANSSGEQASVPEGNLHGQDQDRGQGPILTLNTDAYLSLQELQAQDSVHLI
Protocol: as §1

binding result (mouse IL2RG): binds
binding result [1]: binds
binding result (mouse IL2RB): binds
B1: humanized IL2RA protein (chimeric human/mouse IL2RA expressed by B-hIL2RA mice) (receptor)
chain: ELCDDDPPEIPHATFKAMAYKEGTMLNCECKRGFRRIKSGSLYMLCTGNSSHSSWDNQCQCTSSATRNTTKQVTPQPEEQKERKTTEMQSPMQPVDQASLPGHCREPPPWENEATERIYHFVVGQMVYYQCVQGYRALHRGPAESVCKMTHGKTRWTQPQLICTGEMETSQFPGEEKPQASPEGRPESETSCLVTTTDFQIQTEMAATMETSIFTTEYKVAVASCLFLLISILLLSGLTWQHRWRKSRRTI
notes: also called chimeric IL2RA; engineered mouse IL2RA after humanization
